# Assay: yeast display, Sf9 membrane polyspecificity reagent, FACS + sequencing; frameworks hold sequencing errors
# In short: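 After 36–48 hours of galactose induction, yeast (Saccharomyces cerevisiae BJ5465) displaying a synthetic nanobody library were stained at 4 °C for 1 hour with 10% biotinylated, detergent-solubilized Sf9 membrane reagent. Streptavidin microbeads enriched the stained cells before FACS sorting into low and high (top ~1%) gates on anti-HA and streptavidin fluorescence. Each clone's polyreactivity label reflects its gate of origin.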
row,Sequence,polyreactivity (PSR sort gate)
1,QFQLVESGGGLVQAGGILRLSCDASGSILARYALGWYRQAPGKERVLVAAISSRGGSTYYADSVKGRFSISRDNAKNTVYLQMNSLKPEDTAVYYCASYVYLQVEYDYWGQGTQVTVSS,low polyreactivity
2,QVQLVESGGGLVQAGGSLRLSCAASGIIFSFYAMGWYRQAPGKERELVADITLSGGRTYYADSVKGRFTISRDNAKNTVYLQMNSLKPEDTAVYYCNDETYERGDYWGQGTKVTVSS,high polyreactivity
3,QVQLVESGGGLVQAGGSLRLSCAASGITFSSYAMGWYRQAPGKERELVAGITRRGRITYYADSVNGRFTISRDNAKNTVYLQMNSLKPEDTAVYYCAATHRFRTGSPDGGFGYWGQGTQVTVSS,high polyreactivity
4,QVQLVESGGGLVQAGGSLRLSCAASGFTFWRNAMGWYRQAPGKERELVAAISASGGSTYYADSVKGRFTISRDYAKNTVYLQKNSLKPEDTAVYYCAADTQGFYRYDYWGQGTQVTVSS,low polyreactivity
5,QVKLVESGGGLVQAGGSLRLSFAASGSIFFIYAMGWYRQETGKERELVASINSGGTTSNADSVKGRFTISRDNAKNTVYLQLNSLKPADTAVYYCATRGIVGILDSLSEEYYYWGQGTQVSVSS,low polyreactivity
6,QDQLVESAGGLVQAGGSLRLSCAASGSISYNNVMGWYRQAPGKERELVARIRSGGSTYYADSVKGRFTISRDNAKNTVYLQMNSLKPEDTAVYYCAARTKRQAGSYGYWGQGTQVTVSS,high polyreactivity
7,QVQLVESGGGLVQAGGSLRFSCAASGSIFIANAMGWYRQAPGQERALVAAIDSGGSTNYADSVKGRFTISRDNAKNTVYLQMNSLKPEDTAVYYCADDGTLTAPGGDYWGQGTQVTVSS,high polyreactivity
8,QVQLVESGGGLVQAGGSLRLSCAASGSIFDYNAMGWYTQAPGKERELVAAITSGGSTNYADSVKGRFTISRDNAKNTVYLQMNTLKPEDTAVYYCAADHDYYPTNLDYWGQGTQVTVSS,low polyreactivity
9,QVQLVESGGGLVQAGGSLRLSCAASGSTFDNYAMGWYRQAPGKERELVAAISYSGGSTHYADSVKGRFTISRDNAKNTVYLQMNSLKPEDTAVYYCAADVSGDKGSIHMNYWGQGTQVTVSS,low polyreactivity
10,QVQLVESGGGLVQAGGSLRLSCAASGGTFTFYAMGWYRQATGKERELVATINWSGGSTYYADSVKGRFTISRDNAKNTVYLQMNSLKPEDTAVYYCNAAWPYKSVEYWGQGTQVTVSS,low polyreactivity
11,QVQLVESGGGLVQAGGSLRLSCAASGRIFAAYAMGWYRQAPGKERELVAAISWSGANTYYADSVKGRFTISRDNAKNTVYLQMNSLKPEDTAVYYCATLSKSYGVRRYKSDYWGQGTQVTVSS,high polyreactivity
12,QVQLVESGGGLVQAGGSLRLSCAASGSTFRYNAMGWYRQPPGKERELVAAISSGGSTNYADSVKGRFTISRDNAKNTVYLQMNSLKPEDTAVYYCAATRPRIPVYQNNYGYWGQGTQVTVSS,high polyreactivity
13,QVQLVESGGGLVQAGGSLRLSCAASGLTFPHYTMGWYRQAPGKEREFVARITGSGGRTYYADSVKGRFTISRDNAKNTVDLQRNSLKPEVTGVYYCARDRGYQSGYDYWGQGTQVSVSS,high polyreactivity
14,QVQLVESGGGLVQAGGSLRLSCAASGGTFAIYAMGWYRQAPGKYRELVASINSGGSTNNADSVKGRFTISRDNAKNTVYFQLNLLKPEDTAVYYCNRGYLGYFRYDYWGQGTQVTVSS,high polyreactivity
15,QVQLVESGGGLVQAGGSLRLSCAASGLTFEYYTMGWYRQAPGKERELVAAITSSGGSTYYADSVKGRFTISRDNAKNTVYLQMNSLKPEDTAVYYCNAYWTYEFPSYDYWGQGTQVTVSS,low polyreactivity
16,QVQLVESGGGLVQAGGSLRLSCAAYSYVMGGYRQAPGKERELVAAISQSGGSTYYADSVKGRFTISRDNAKNTVYLQMNTLKPEDTAVYYCAASYQVRYDYWGQGTQVTVSS,high polyreactivity

row,Sequence,polyreactivity (PSR sort gate)
1,QVQLVESGGGLVQAGGSLRLSCAASGFTFGYYAMGWYRQAPRKERELVAAISSSSGRTHYADSVKGRFTISRDNAKNTVYLQMNSLKPEDTAVYYCAAEFYYLYYYWGQGTQVTVSS,high polyreactivity
2,QVQHVESGGGLVQAGGSLRLSCAASGSIFRYYTMGWYRQAPGKERELVAAISYSGGRTYYADSVKGRFTISRDNAKNTVYLQMNSLKPEDTAVYYCAAKLLQLRGRGYEYWGQGTQVTVSS,high polyreactivity
3,QVQLVESGGGLVQAGGSLRLSCAASGGIFVLNAMGWYRQAPGKERELVATITSSGGSTYYADSVKGRFTISRDNAKNTVYLQMNSLKPEDTAVYYCNADWYLWSTFAQGYGYWGQGTQVTVSS,high polyreactivity
4,QVQLVESGGGLVQAGGSLRLSCAASGSTFPVNTMGWYRQAPGKERELVAAISSDDNTNYADSVKGRFTISRDNAKNTVYLQMNSLKPEDTEVYYCAVKGHPAYVEVPPRYAWEFDYWGQGTQVTVSS,low polyreactivity
5,QVQLVESGGGLVQAGGSLRLSCAASGITFYGYAMGWYRQAPGQERELVAAISSRGGSTYYADSVKGRFTISRDNAKNTVYLQMNSLKPEDTAVYNCAAVYYTGEYYYWGQGTQVTVSS,high polyreactivity
6,QVQLVESGGGLVQAGGSRRLSCAASGFIFTKYTMGWYRQAPGKERELVAAIRSDGVRTYYADSVKGRFTISRDNAKNTVYLQMNSLKPEDTAVYYCAARSLRYGRGMYYWGQGTQVTVSS,high polyreactivity
7,QVQLVASGGGLVQAGGSLRLSCAASGTTLYYYAKGWYRQAPGKEREMGAYISSSGDRTYYADSVNGRFTISRDNAKNTVDLQMNSLKPEDTAVYYCNAYLYVSGLDYATYSLGYWGQGTQVTVSS,low polyreactivity
8,QVQLVESGGGLVQAGGSLRLSCAASGSIFRRYTMGWYRQAPGKEREFVAVISRDGGSTYYADSVKGRFTISRDNAKNTVYLQMNSLKPEDTAVYYCAARLVRRYDYDYWGQGTQVTVSS,high polyreactivity
9,QVQLVESGGVLVQAGGSLRLSCAASGSTFYYYAMGWYRKAPGKERELVAAISSSGGTTYYADSVKGRFTISRDNAKNTVYLQMNSLKPEDTAVYYCAKYPWYWDEGNSWGQGTQVTVSS,low polyreactivity
10,QVQLVESGGGLVQAGGSLRLSCAASGFTFRIYAMGWYRQAPGKERELVAAISWAGGSTFYADSVKGRFTISRDNAKNTVYLQMNSLKPEDTAVYYCAADTAFHYDYWGQGTQVTVSS,low polyreactivity
11,QVQLQESGGGLVQAGGSLRLRCAASRNNSGSSDLGWYHQAPGKEREFVASITSGGTTYYADSVKGRFTISRDNAKNTVYLQMNSLKPEDTAVYYCAVGDPADAEFGYWGQGTQVTVSS,low polyreactivity
12,QVQLVESGGGLVQAGGSLRLTCAASGFTFDRYAMGWYRQAPGKEREVVAAISRSGTSTYYADSVKGRFTISRDNAKNTVYLQMNSLKPEDTAVYYCATRYNVYFPSRRYQYDYWGQGSQVTVSS,high polyreactivity
13,QVQLVESGGGLVQAGGSLRLSCAASGRTFYGYTMGWYRPAPGKERELVAAITYSGDSTYYADSVKGRFTISRDNAKNTVYLQLNSLKPEDTAVYYCNAVGRYPVYWWGYYYWGQGTQVTVSS,high polyreactivity
14,QVQLVESGGGLVQAGGSLRLSCAASGSTFYSNPMGWSRQAPGKESEFVAAISWSGGSTYYADSVKGRFTISRDNAKNSVYFQMYSLKPQDTAVYSCAKKPYYYAYGGYGYWGQGNQVTVSS,high polyreactivity
15,QGQLVESGGGLVQAGGSLRLSCPASGRIFNTYAMGWYRQAPGKERELVAAINWSGGRTYYADSVKGRFTISRDNAKNTVYLQMNSLKPEDSAVYYCKARGRRRVPEFDYWGQGSQVTVSS,high polyreactivity
16,QVQLVESGGGLVQAGGSLRLSCAASGSTFDPYAMGWYRQAPGKERELVAAITSGGGTKYADSVKGRFTISRDNAKNTVYLQMNSLKPEDTAVYYCATDIRAEHGYWGQGTQVTVSS,low polyreactivity

# Reference: the nanobody polyreactivity screen of Harvey et al. (2022)
